# Measured values published in publication PMC2610422.
# Molecular target: transmembrane glycoprotein gp41 of HIV-1 strain BaL, in the native spike on virions (HIV-1 strain BaL)
# Experiment: cryo-EM structure
substance,measurement,value
"transmembrane glycoprotein gp41 of HIV-1 strain BaL, in the native spike on virions (natural protein)",stoichiometry N,3
